# Assay results from patent publication US9529005B2, “Modulating bacterial MAM polypeptides in pathogenic disease” (priority 2011, dated 2016).
# B1: mce 4: GST-tagged individual mce domain 4 of V. parahaemolyticus MAM7 (SEQ ID NO: 8) (protein, listed as Vibrio parahaemolyticus)
# chain: SIAIRLISDNSFGLDSGANVLYKGIVVGSIINVGLVDEKKQTKHEVFMDVLIDHEYKHLIKSNNRFYVTGSASAELTESGLSVTVP
# modifications: GST tag
# B2: mce 6: GST-tagged individual mce domain 6 of V. parahaemolyticus MAM7 (SEQ ID NO: 10) (protein, listed as Vibrio parahaemolyticus)
# chain: FGRVISLETDGTQEVLKGMPIEYQGVKVGEVTLVVPNFRRNLVEVTARILPEYVENIAVEGTHFWLTEPEIGLGGVKNLGALVSKSISVEPG
# modifications: GST tag
# B3: mce 7: GST-tagged individual mce domain 7 of V. parahaemolyticus MAM7 (SEQ ID NO: 11) (protein, listed as Vibrio parahaemolyticus)
# chain: EGVMFTLQSEQRGSVQVGTPVLYRQMEVGQVTDVRLGEFADRVVSTIKIKPEYAYLVRQNSVFWNVSGVDVSIGITGANIKAGTIDSLVRG
# modifications: GST tag
# B4: mce 2: GST-tagged individual mce domain 2 of V. parahaemolyticus MAM7 (SEQ ID NO: 6) (protein, listed as Vibrio parahaemolyticus)
# chain: QGLNIKLKSRDLGGVSIGSQIVYKKIPIGAVYSYQLDEDAKSITIQANIQEQYRHIINDRSRFWNVSGIGASIGFEGVDVRLESMSALLGG
# modifications: GST tag
# B5: mce 1: GST-tagged individual mce domain 1 of V. parahaemolyticus MAM7 (SEQ ID NO: 5) (protein, listed as Vibrio parahaemolyticus)
# chain: AGQRVQIYFSDAAGLVAGRTTIRYQGLEVGMVRDINLSEDLGSIYVDADIYPEATKLLNDKTRFWLVKPTASLTGVSGLDALVSGNYISIQPG
# modifications: GST tag
# B6: mce 5: GST-tagged individual mce domain 5 of V. parahaemolyticus MAM7 (SEQ ID NO: 9) (protein, listed as Vibrio parahaemolyticus)
# chain: GSKTLMLFASELPPISKGSPLLYRNLPVGNVSDFHLVDGGVLIKATIENRFAYLVTPQTVFWNRSGIEIDASLSGVSVKAHPLKSLIEG
# modifications: GST tag
# B7: mce 3: GST-tagged individual mce domain 3 of V. parahaemolyticus MAM7 (SEQ ID NO: 7) (protein, listed as Vibrio parahaemolyticus)
# chain: RGIAIKIALPDDNKVSSEGAPIMYRGIEIGQVTDLSLSEGREVILASAAIQPAFSDMLTTGTRFVLEEAKVSLSGVENIANLVRGNFLTIVPG
# modifications: GST tag
# Test: Liposome association assay
# Assay type: binding
# Conditions: individual GST-mce domains, 1-80 mol % PA, densitometry; relative to high binding mce domains
# Method: PBS-buffered liposomes were prepared from 1,2-Dioleoyl-sn-glycero-3-phosphocholine (PC) or mixtures of PC and 1,2-dioleoyl-sn-glycero-3-phosphate (PA) (both Avanti Polar Lipids Inc.) as described previously (Selyunin et al., 2011), but using PBS as buffer. 300 μg liposomes were incubated with 100 μg MBP-MAM protein in PBS for one hour at 22° C. Mixtures were centrifuged at 100 000×g, 4° C. for one hour and both pellet and supernatant fractions were separated by SDS-PAGE and proteins were detected by Coomassie staining.
# Binding of GST and GST-mce constructs to liposomes were carried out as described in the literature (Krachler et al., 2011). 300 μg liposomes containing PC alone or 1-80 mol % PA were incubated with 100 μg GST and GST-mce proteins in PBS for one hour at 22° C. Mixtures were centrifuged at 100,000×g, 4° C. for one hour and both pellet and supernatant fractions were separated by SDS-PAGE and proteins detected by Coomassie staining Band intensities were determined using the gel analysis software UN-SCAN-IT (Silk Scientific Inc.) and intensities of pellet samples (% bound) were expressed as fraction of total intensities (supernatant and pellet samples combined).
row,Molecule,decrease of binding to PA-containing liposomes (apparent affinity)
1,B1,bound equally well
2,B2,more than 100 fold
3,B3,~20 fold
4,B4,bound equally well
5,B5,bound equally well
6,B6,~6 fold
7,B7,bound equally well

# Test: Pull-down of liposomes (50 mol % PA, 50 mol % PC) on immobilized GST-mce domains
# Assay type: binding
# Conditions: 50 mol % PA and 50 mol % PC, molybdophosphoric acid assay
# Method: Liposomes in load, flowthrough and eluate fractions were quantified using the method of Worth an Wright (1977). Briefly, samples were extracted with a mixture of chloroform and methanol, centrifuged and molybdophosphoric acid (Sigma) was added to the organic phase. Samples were centrifuged and the aqueous phase removed. Metol and sodium bisulfate were added to reduce the organic phase and the aqueous phase was removed again following centrifugation. The amount of phospholipid was determined by measuring absorbance at 680 nm and expressed as fraction of the amount detected in loaded fractions.
# Although the inventors had previously shown that MAM1 is sufficient to bind to phosphatidic acid, it was unclear how the other mce domains contributed to phosphatidic acid binding in the absence of fibronectin. The inventors tested all seven individual mce domains (mce1-mce7) for phosphatidic acid binding using liposome association assays. Proteins were incubated with liposomes containing a mixture of PC and increasing amounts (1-80 mol %) of PA, followed by separation of liposome-bound and un-bound fractions by ultracentrifugation. All fractions were analyzed by SDS-PAGE (data not shown) followed by densitometry (FIG. 18A). […] When the inventors analyzed the mce domains of MAM7 for overall charge, they found only minor differences between individual domains. When they looked at charge distribution, however, the inventors observed that several basic residues that are otherwise well conserved between individual domains are mutated in mce 6. These include two residues which are lysines in mce 2, the strongest binding mce domain, but a serine and glutamine in mce 6, respectively, and a well conserved arginine which is replaced by a histidine in mce 6 (FIG. 18D). […]. (FIG. 18B and data not shown). […] GST-mce proteins were immobilized and incubated with liposomes. Bound liposomes were quantified using a molybdophosphoric acid assay. […]
row,Molecule,binding of liposomes to immobilized GST-mce proteins
1,B1,strong binding
2,B2,weaker binding
3,B3,strong binding
4,B4,strong binding
5,B5,strong binding
6,B6,weaker binding
7,B7,strong binding
